Results on one molecule are retold here after paper PMC9807911, “RH5.1-CyRPA-Ripr antigen combination vaccine shows little improvement over RH5.1 in a preclinical setting” (Frontiers in Cellular and Infection Microbiology, 2022).

In the experiment the target is CyRPA (D29-E362; S147A, T324A, T340A) (Plasmodium falciparum 3D7, UniProt Q8IFM8 29-362, S147A | T324A | T340A). In words: gel electrophoresis. The settings on record: both partners purified.

B1: RH5.1 (E26-Q526; T40A, T216A, T286A, T299A) (natural protein)
chain: ENAIKKTKNQENNLALLPIKSTEEEKDDIKNGKDIKKEIDNDKENIKTNNAKDHSTYIKSYLNTNVNDGLKYLFIPSHNSFIKKYSVFNQINDGMLLNEKNDVKNNEDYKNVDYKNVNFLQYHFKELSNYNIANSIDILQEKEGHLDFVIIPHYTFLDYYKHLSYNSIYHKSSTYGKCIAVDAFIKKINEAYDKVKSKCNDIKNDLIATIKKLEHPYDINNKNDDSYRYDISEEIDDKSEETDDETEEVEDSIQDTDSNHAPSNKKKNDLMNRAFKKMMDEYNTKKKKLIKCIKNHENDFNKICMDMKNYGTNLFEQLSCYNNNFCNTNGIRYHYDEYIHKLILSVKSKNLNKDLSDMTNILQQSELLLTNLNKKMGSYIYIDTIKFIHKEMKHIFNRIEYHTKIINDKTKIIQDKIKLNIWRTFQKDELLKRILDMSNEYSLFITSDHLRQMLYNTFYSKEKHLNNIFHHLIYVLQMKFNDVPIKMEYFQTYKKNKPLTQ
Consider B1, for which the binding result was “binds”.
